Two proteins from patent US20090191181 can be followed below.

Changes are numbered by the printed parent chain.

The target of data set [1] is T1, RB1 substrate domain mutant K824A.
T1 chain: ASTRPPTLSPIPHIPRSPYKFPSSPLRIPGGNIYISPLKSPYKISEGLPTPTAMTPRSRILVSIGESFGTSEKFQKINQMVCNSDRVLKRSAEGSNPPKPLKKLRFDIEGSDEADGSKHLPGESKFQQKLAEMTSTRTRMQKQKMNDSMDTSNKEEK

In data set [2] the target is T2, RB1 substrate domain mutant K896A.
T2 chain: T1 chain with A53K, K125A

For data set [3], the target named is T3, Recombinant C-terminal region of RB1 (codons 769-921).
T3 chain: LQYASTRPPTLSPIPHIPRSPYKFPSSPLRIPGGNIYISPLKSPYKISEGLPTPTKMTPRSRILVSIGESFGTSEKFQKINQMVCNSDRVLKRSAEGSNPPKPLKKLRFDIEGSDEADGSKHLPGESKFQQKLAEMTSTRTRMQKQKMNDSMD

Data set [4] deals with T4, RB1 double mutant K791A/K824A.
T4 chain: T1 chain with K20A

The next data set addresses T5, RB1 mutant K791A.
T5 chain: T1 chain with K20A, A53K

Data set [5] concerns the target T6, RB1 double mutant K814A/K824A.
T6 chain: T1 chain with K43A

Another data set concerns the target T7, RB1 mutant K814A.
T7 chain: T1 chain with K43A, A53K

Data set [6] addresses T8, RB1 substrate domain mutant K889A.
T8 chain: T1 chain with A53K, K118A

The target in data set [7] is Recombinant full-length GST-p53 (wild-type p53), P04637.
Recombinant full-length GST-p53 (wild-type p53), P04637, sequence (P04637 whole entry, looked up): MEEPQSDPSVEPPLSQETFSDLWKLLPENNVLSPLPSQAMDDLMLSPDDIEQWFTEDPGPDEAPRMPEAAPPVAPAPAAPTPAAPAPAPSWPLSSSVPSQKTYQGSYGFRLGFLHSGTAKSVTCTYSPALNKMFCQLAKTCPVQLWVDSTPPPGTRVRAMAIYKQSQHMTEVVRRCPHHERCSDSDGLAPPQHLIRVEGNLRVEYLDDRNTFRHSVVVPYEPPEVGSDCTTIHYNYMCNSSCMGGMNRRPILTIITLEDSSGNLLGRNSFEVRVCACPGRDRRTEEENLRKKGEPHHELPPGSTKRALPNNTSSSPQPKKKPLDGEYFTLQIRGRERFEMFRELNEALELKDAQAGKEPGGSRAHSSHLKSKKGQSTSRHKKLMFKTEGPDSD
Data set [8] has as its target T9, full-length recombinant RB protein (3108, QED Bioscience).
T9 chain: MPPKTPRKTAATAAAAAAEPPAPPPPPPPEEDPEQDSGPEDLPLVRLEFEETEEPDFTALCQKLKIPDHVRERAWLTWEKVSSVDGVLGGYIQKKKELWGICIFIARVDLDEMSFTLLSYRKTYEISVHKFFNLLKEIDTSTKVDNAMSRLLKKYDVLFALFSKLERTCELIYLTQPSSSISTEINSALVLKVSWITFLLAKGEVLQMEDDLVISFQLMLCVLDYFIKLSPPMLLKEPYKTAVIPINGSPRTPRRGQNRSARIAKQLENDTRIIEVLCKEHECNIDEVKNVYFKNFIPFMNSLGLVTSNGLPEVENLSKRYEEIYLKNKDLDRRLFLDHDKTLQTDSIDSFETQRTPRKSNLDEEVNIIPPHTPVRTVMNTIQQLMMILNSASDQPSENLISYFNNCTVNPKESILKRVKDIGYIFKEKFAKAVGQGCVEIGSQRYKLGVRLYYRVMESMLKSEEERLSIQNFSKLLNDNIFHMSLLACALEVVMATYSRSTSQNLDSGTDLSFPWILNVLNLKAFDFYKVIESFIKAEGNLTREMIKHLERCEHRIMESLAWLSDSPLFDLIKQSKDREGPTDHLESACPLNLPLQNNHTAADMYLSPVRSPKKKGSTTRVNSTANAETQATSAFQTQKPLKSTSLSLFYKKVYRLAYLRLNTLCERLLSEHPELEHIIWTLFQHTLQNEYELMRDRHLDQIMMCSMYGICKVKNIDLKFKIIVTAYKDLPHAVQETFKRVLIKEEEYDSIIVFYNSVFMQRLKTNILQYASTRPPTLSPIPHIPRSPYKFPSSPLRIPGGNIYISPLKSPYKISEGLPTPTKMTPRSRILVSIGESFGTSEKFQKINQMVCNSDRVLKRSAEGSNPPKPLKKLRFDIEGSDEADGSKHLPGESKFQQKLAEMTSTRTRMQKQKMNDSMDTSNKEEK

B1: Recombinant SMYD3 protein (prepared in Sf9 cells, Baculovirus system) (protein)
chain: MEPLKVEKFATANRGNGLRAVTPLRPGELLFRSDPLAYTVCKGSRGVVCDRCLLGKEKLMRCSQCRVAKYCSAKCQKKAWPDHKRECKCLKSCKPRYPPDSVRLLGRVVFKLMDGAPSESEKLYSFYDLESNINKLTEDKKEGLRQLVMTFQHFMREEIQDASQLPPAFDLFEAFAKVICNSFTICNAEMQEVGVGLYPSISLLNHSCDPNCSIVFNGPHLLLRAVRDIEVGEELTICYLDMLMTSEERRKQLRDQYCFECDCFRCQTQDKDADMLTGDEQVWKEVQESLKKIEELKAHWKWEQVLAMCQAIISSNSERLPDINIYQLKVLDCAMDACINLGLLEEALFYGTRTMEPYRIFFPGSHPVRGVQVMKVGKLQLHQGMFPQAMKNLRLAFDIMRVTHGREHSLIEDLILLLEECDANIRAS
In the case of B1, the “methylation by SMYD3 (autoradiography, liquid scintillation counter)” value in [1] is “methylation of K824A was significantly decreased”; in data set [2] it was “the K889A and K896A mutants were methylated at similar levels by SMYD3”; in data set [6] it was “the K889A and K896A mutants were methylated at similar levels by SMYD3”. Moreover, in data set [3], the “incorporation of 3H-labeled methyl donor (liquid scintillation counter)” value is given as “four to six fold higher amount of 3H-labeled methyl donor in the presence of SMYD3 than the absence of SMYD3”. Also, the “methylation by SMYD3 (fluorogram, liquid scintillation counter)” value in [4] is “showed equivalent levels of methylation to the K824A protein”; with RB1 mutant K791A, “K791A and K814A, showed similar levels of methylation to wild type-RB1”; in data set [5] it was “showed equivalent levels of methylation to the K824A protein”; with RB1 mutant K814A, “K791A and K814A, showed similar levels of methylation to wild type-RB1”. Moreover, the “methyltransferase (MTase) activity” value in the data set with recombinant histone H3 is reported as “a dose-dependent increase of MTase activity on both substrates”.

B2: Flag-tagged wild-type SMYD3 immunoprecipitated from 293T cells (p3XFLAG-CMV-SMYD3) (protein)
chain: B1 chain
Take B2: the “methylation of substrate (in vitro MTase assay with 3H-labeled SAM, PAGE and autoradiography)” value in data set [3] is recorded as “bands corresponding to methylated RB1 were also detected”; in [7], “no bands corresponding to methylated p53 were detected”; in the data set with recombinant histone H3 it was “bands corresponding methylated histone H3”. In addition, the “methylation of substrate (in vitro MTase assay)” value in data set [8] is “SMYD3 methylated full length of RB1”.
